In the nanobody polyreactivity screen of Harvey et al. (2022):

Experiment: yeast display, Sf9 membrane polyspecificity reagent, FACS + sequencing; frameworks hold sequencing errors
Method in brief: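 A synthetic nanobody library was expressed on Saccharomyces cerevisiae BJ5465 by galactose induction for 36–48 hours. The library was stained for 1 hour at 4 °C with 10% biotinylated, detergent-solubilized Sf9 membrane reagent and enriched with streptavidin microbeads before FACS. Low and high (top ~1%) gates were set on anti-HA fluorescence for expression and streptavidin fluorescence for reagent binding, and each polyreactivity label reflects the gate of origin.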

Sequence	polyreactivity (PSR sort gate)
QVQLVESGGGLVQARGSLRLSCAASGSIFYGYALGWYRQAPGKERELVAAITSSGTRTYYADSVKGRFTISRDNAKNTVYLQMNSLKPEDTAVYYCAADGPGYQYDFWGQGTQVTVSS	high polyreactivity
EEELVESGGGLVQAGGSLRLTCAASGFIFAYNAMGWYRQAPGKEREFVAAISRSGGSTYYADSVKGRFTISRDNAKNTVYLQMNSLKPEDTAVYYCAARRSVGGYGYWGQGTQVTVSS	high polyreactivity
QVQLVESGRGLVQAGGSLRLSCAASGIILGRYAKGWYRQAPGKERELVAVITGDGSTTYADSVKGRFTISRDNAKNTVYLQMNSLKPEDTAVYYCNAAVEGSLNGYEYWGQGTQVTVSS	low polyreactivity
QVHLVDSGGGLVQAGGSLRLSCAASGSTIRYYAMGWYRQAPGKEREMVAAITSSGTSTYYADSVKGRFTISRDNAKNTVYLQMNSLKPEDTAVYYCAAPPVYKWVSSRYDYWGQGTQVTVSS	low polyreactivity
QVQLVESGGGLVQAGGSLRLSCAASGSIFDAYAMGWYRPATGKERELVAAITYSGGSTYYADSVKGRFTISRDNAKNTVYLQMNSLKPEDTAVYYCNTDSRVRTWFRAFTYDSWGQGTQVTVSS	low polyreactivity
QVQLVESGGGLVQAGGSLRLSCAASGSIFRVNAMGWYRQAPGKERELVAAISCRGASTYYADSVKGRFTISRDNAKNTVYLQMNSLKPVDTAVYYCAAYGYSIGPYYYWGQGTQVTGSS	high polyreactivity
QVQLVESGGGLVQAGGSLRLSCAASGSTFAGNGMGWYRQAPGKEGELVAGIDVTGGSTYYADSVKGRFTISRDNAKKTVDLQMNSLKPEDTAVYYCYARYVYHSSFAGFDYWGQGTQVTVSS	low polyreactivity
QVQLVESGGGLVQAGGSLRLSCAASGRIFSANAMGWYRQAPRKERELVAGIDSGGSTNYADSVKGRFTISRDNSKNTVYLQMNSLKPEDTAVYYCNAEDHKYEYDSWGQGTQVTVSS	low polyreactivity
QVQLVESGGGLVQAGGSLRLSCASSGSTFVSYVMGWYRQAPGKERELVARITISSGSTRYADSVKGRFTISRDNAKNTVYLQMNSLKPEDTAVSYCAVDAVDAFVFLSWDYDYWGQGTQVTVSS	low polyreactivity
QVQLVESGGGLVQAGGSLRLSCAASGTIFDYNAMGWYRQAPGKERELVAAISWRGGTTYYADSVKGRFTISRDNAKNTVYLQMNSLKPEDTAVYYCAAGRRGVYHGGYWGQGTQVTVSS	high polyreactivity
QVQLVESGGGLVQAGGSLRLSCAASGRIFKRYDMGWYRQAPGKERELVAAINRSGGSTYYADSVKGRFTISRDNAKNTVYLQMNSLKPEDTAVYYCAARYRYDGRYDYWGQGTQVTVSS	high polyreactivity
QVQLVESGGGLVQAGGSLRLSCAASGRIFLSYAMGWYRQAPGKERELVAAITDNGGDTYYADSVKGRFTISRDNAKNTVYLQMNILKPEDTAVYYCAVDGGEFSSYGYWGQGTQVTVSS	low polyreactivity
QVQLVDSGGGLVQAGGSLRLSCAASGRTFTWYAMGWYRQAPGKERELVSAITNGGRTYADSVKGRFTISRDNAKNTVYLQMNSLKPEDTAVYYCAKVQYRGYLPHQRGRERDYDYWGQGTQVTVSS	low polyreactivity
LVQLVESGGGLVQAGGSLRLSCAASGSLFVVTAMGWYRQAPGKERELVAAFSSGGRTYYADSVKGRFTISRDNAKNTVYLQMNSVKPEDTAVYYCAAGGWRGHCYWGQGTQVTVSS	high polyreactivity
QVQLQESGGGLVQAGGSLRLSCAASGTIFRFRYMGWHRQAPGTERELVAGINGGTTTYYADSVIGRFTISRDNAKNTVYLQMNSLKPDDTAVYNCAAGASRLTYYDYWGQGTQVTVSS	low polyreactivity
QVQLVESGGGLVQAGGSLRLSCAASGFTFVRYAMGWYRQAPGKERELVAAISSGGSTNYADSVKGRFTISRDNAKNTVYLQMNSLKPEDTAVYYCNAVSRKVYPGPMDYWGQGTQVTVSS	high polyreactivity
QVLLQESGGGLVQAGGSLRVSCAASGTISTDIRMGSYRLAPGKEREFVASIDGCSTTYYADSVKGRFTISRDNAKNTVYLQMNSLKPEDTAMYYCAAREATEYYLYYWGQGTQVTVSS	low polyreactivity
QVQLVESGGGLVQAGGSLRLSCAASGRTFYFNAMGWYRQAPRKESELVAAISSGASTYYADSVKGRFTISRDNAKNTVNLQMISLKPEDTAVYYCAAEFWTQWSGYEYWGQGTQVTVSS	high polyreactivity
QVQLVESGGGLDQAGGSLRLSCAASVLIFNIYARGWYRQAPGKERELVATIRYSGGSTNYADSVKGRFTISRDNAKNTVYLQMNSLKPEDTAVYYCNAGYYPSGYDYWGQGTQVTVSS	low polyreactivity
EVQLVESGGGLVQAGGSLRLSCAASGRIFYTNTMGWYRPAPGKERELVATGSTYYADSVKGRFTISRDNAKNTVYLQMDSLKPEDTAVYYCAKRGDFLTKRYESGSAASDYLGQGTQVTVSS	low polyreactivity
QVQLVESGGGLVQAGGSLRLSCAASGRTFTKYAMGWYRQAPGKERELVAGITRRGGNTYYADSVKGRFTISRDNAKNTVYLQMNSLKPEDTAVYYCAATLFYTGSRFRYYYWGQGTQVTVSS	high polyreactivity
QVQLVESGGGLVQAGGSLRLSCAASGRILATYTMGWYRQAPGKERELVATITSGGRTTYADSVKGRFTISRDNAKNTVYLQMNSLKPEDTAVYYCNVANWYYRKYRPLWGRDYYWGQGTQVTVSS	high polyreactivity

Sequence	polyreactivity (PSR sort gate)
QVQLVESGGGLVQAGGSLRLSCAASGSTFYYYAMGWYRQAPGKERELVAAIRSSGGSTYYADSVKGRFTISRDNAKNTVYLQMNSLKPEDTAVYYCIHYLSTYHGTFTYGYWGQGTQVTVSS	low polyreactivity
QVQLVESVVGLVQAGGSLRLSCAASGRTFRRYAMGWYRQAPGKERELVAAISRSGGSTYADSVKGRFTISRDNAKNTVYLQMNSLKPEDTAVYYCAAVTYSGSRFDYWGQGTQVTVSS	high polyreactivity
QVQLVESGGGLVQAGGSLRLSCAASGSTFPSNAMGRYRQAPGKERELVAVISTSGVRTYYADSVKGRFTISRDNAKNTVYLQMNSLKPEDTAVYYCAARTRSYGGNGYRYPFDYWGQGTQVTVSS	high polyreactivity
QVQLVESGGGLVQAGGSLRLSCAASGRTFHYNAMGWYRQAPGKERELVAAITRSGGSTYYADSVKGRFTISRDNAKNTVYLQMNSLKPEDTAVYYCAAGWRSVSVRYYGPSDYWGQGTQVTVSS	low polyreactivity
QVQLVESGGGLVQAGGSLRLSCAASGSTIDINTKGWYRQAPGKEREFVAAITDSDDSTYYADSVKGRFTISRDNAKNTVYLQMNSLKPEDTAVYYCATDPDYVLYRTAYYEYDYWGQGTQVTVSS	low polyreactivity
QVQLVESGGGLVQAGGSLRLSCAASGFTFAGNAMGWYRPAPGKERELVAAISRRGGSTYYADSVKGRFTISRDNAKNTVYLQMNSLKPEDTAVYYCAAVYPYDYDYWGQGTQVTVSS	high polyreactivity
QVQLVESGGGLVQAGGSLRLSCAASGRIFSGYAMGWYRQAPGKERELVAAISGGGSTNYADSVKGRFTISRDNAKNTVYLQMNSLKPEDTAVYYCATQYGHYPYWLYKYDYWGQGTQVTVSS	low polyreactivity
QVQLVESGGGLVQAGGSLRLSCAASGFTFDWYAMGWYRPAPGKERELVAAISSGGNTKYADSVKGRFTISRDNAKNTVYLQMNSLKPEDTAVYYCAARLYYSLSYYYWGQGTQVTVAS	high polyreactivity
QVQLVESGGGLVQAGGSLRLICAASGFTFPPYAMGGYRQAPGKERELVAAITSSGGRTYYAYSVKGRFTISRDNAKNTVYLQMNSLKPEDTAFYYCAAYGRFARMNYWGQGTQVTVSS	high polyreactivity
QVQHVESGGGLVQAGGSLRLSCAASGRTFNAYTMGWYRQAPGKERELVAAITSSGGNTYYADSVKGRFTISRDNAKNSVYLQMNSLKPEDTAVYYCNTVYLYGTHDYWGQGTQVTGSS	low polyreactivity
QVQLVESGGGLVQAGGSLRLSCAASGGIFKYNAMGWYRQAPGKERELVAAIDTSGGSTYYADSVKGRFTISRDNAKNTVYLQMNSLKPEDTAVYYCARRWSYQRPSFEYDSWGQGTQVTVSS	low polyreactivity
QVQLVESGGGLVQAGGSLRLSCAASGSTFVSYAMGWYRQEPGKERELVATISQSGGSTSYADSVKGRFTISRDNAKNTVYFQMNCRKPEDTAVYNCAARLRAPHRRSYNYWGQGTQVTVSS	high polyreactivity
QVQLVDSGGGLVQAGGSLRLSCAASGRIFYYYAMGWYRQAPGKERELVAAISWNGGTTYYAESVKGRFTISRDNAKNTVYLQINSLKPEDTAVYYCNAVLYRGPPGSRMDYWGQGTQVTVSS	high polyreactivity
QVQLVDSGGGLVQAGGSLRLSCAASGSIFVGNAMGWYRQAPGKERELVAAITSSGGRTYYADSVKGRFTISRDNAKYTVYLQMNSLKAEDTSVYYCNTSRTRRFSLWDYDYWGQGTQVSVSS	high polyreactivity
QVQLVESGGGLVQAGGSLRLSCAASGSIFWVYAMGWYRPAPGKERELVAGISSGGSTNYADSVKGRCTISRDTAKKTVYLQMNSLKPEDTAVYYCAAVIRTVRERYGYWGQGTQVTVSS	high polyreactivity
QVQLVESGGGLVQAGGSLRLSCAASGFTFANNAMGWYRQAPGKERELVAAISRSGGSTYYADSVKGRFTISRDNAKNTVYLQMNSLKPEDTAVYYCAKAVFYGPCERNYGLDYWGQGTQVTVSS	high polyreactivity
QVQLVESGGGLVQAGGSLRLSCAASGRIFYGYTMGWYRQAPGKERELVAAITQRGGNTHYADSVKGRFTISRDNGKNTVYLHMNRLKPEDTAVYYCAAKYYPYVRGVQYYYWGQGTQVTVSS	high polyreactivity
QVQLVESGGGLVQAGGSLRLSCAASGSIFYFYAMGWYRQAPGKERELVAAISRSVGSTNYADSVKGRFTISRDNAKNTVYLQMNSLKPEDTAVYYCAARRYGAYYWGQGTQVTVSS	high polyreactivity
QVQLVESGGGLVQAGGSLRLSCAASGGTFQYYTMGWYRQAPGKERELVAGISSGGSTYYPDSVKGRFTISRDNAMNTVYLQMNRLKPEVTAVYYCNAVSRRKTYGYRIIKYDYWGQGTQVTVSS	high polyreactivity
QVQLVESGGGLVQAGGSLRLSCAASGRIFYYYAMGRYRQAPGKERELVAAITQSGGSTYYADSVKGRFTISRDNAKNTVYLQMNSLKPEDTAVYYCNAVLSSNTKWRYPGDYWGQGTQVTVSS	low polyreactivity
QVQLVESGGGLVQAGGSLRLSCAASGITFYYYAMGWYRQAPGKERELVAAISSGGRTYYADSVKGRFTISRDNAKNTVYLQMNSLKPEDTAVYYCAASFLVTSREYDYWGQGTQVTVSS	high polyreactivity
